The source of these data is paper PMC11033462.

The target of assay [1] is PLAA p.Ile609Thr, Myc-tagged (human) (UniProt Q9Y263). The assay is described as follows: co-IP; Myc-PLAA overexpressed in HEK293T, captured from cleared lysate on Myc-beads (4°C, 2 h), eluate probed by western blot (anti-VCP, anti-SAKS1, anti-MYC); p97 band divided by the Myc-PLAA band.
Assay [2] addresses PLAA p.Leu795Met, Myc-tagged (human) (UniProt Q9Y263). Described as above.
Assay [3] concerns the target PLAA p.Ile609Thr, Myc-tagged (human) (UniProt Q9Y263). The assay is described as follows: affinity purification with mass spectrometry; Myc-PLAA overexpressed in HEK293T, captured from cleared lysate on Myc-beads (20 mM HEPES pH 7.5, 100 mM NaCl, 0.2% n-dodecyl-β-D-maltoside, 4°C, 2 h), eluted with 10 M urea, LC-MS/MS; cut off 5-fold enrichment over untransfected controls; protein abundance as a ratio to PLAA.

In assay [4] the target is PLAA p.Leu795Met, Myc-tagged (human) (UniProt Q9Y263). The assay is described as above.

“VCP/p97 (from UniProt P55072 1-806) (natural protein)”: the percent decrease of p97 in the IP (ratio to PLAA) against WT PLAA in assay [1] was 80%; in assay [2], 50%; in assay [3] it was 50%; in assay [4], 20%.
